Results: patent US20240116985A1, “STAPLED PEPTIDES AND METHODS THEREOF” (priority 2020, published 2024)
One block for each binder: values may come before it. Starred links: 1 amine or outer side, 2 acyl side, 3 side chain; linkers in the order of their positions; H or OH if unused. Positions of bridges follow the written chain, without caps; N, C: chain ends. Non-standard residues stand in square brackets, D forms with d. Primed or numbered codes have the meaning given here. *: point of attachment. PyrS2″ = (S)-3-amino-1-((pent-4-en-1-yloxy)carbonyl)pyrrolidine-3-carboxylic acid (stapling residue), C=CCCCOC(=O)N1CC[C@@](N[*:1])(C(=O)[*:2])C1; Tf = trifluoromethylsulfonyl on Dap side-chain N ([Tf]Dap = (S)-2-amino-3-((trifluoromethyl)sulfonamido)propanoic acid), O=S(=O)(C(F)(F)F)*; B5(16) = 2-amino-2-(pent-4-en-1-yl)hept-6-enoic acid = 2,2-bis(4-pentenyl)glycine (stitching residue), C=CCCCC(CCCC=C)(N[*:1])C(=O)[*:2]; B5(4) = 2,2-bis(4-pentenyl)glycine = 2-amino-2-(pent-4-en-1-yl)hept-6-enoic acid (stitching residue), C=CCCCC(CCCC=C)(N[*:1])C(=O)[*:2]; B5(5) = 2,2-bis(4-pentenyl)glycine, 2-amino-2-(pent-4-en-1-yl)hept-6-enoic acid (stitching residue), C=CCCCC(CCCC=C)(N[*:1])C(=O)[*:2]; TfeGA = (S)-2-amino-3-((carboxymethyl)(2,2,2-trifluoroethyl)amino)propanoic acid, O=C([C@H](CN(CC(=O)[*:3])CC(F)(F)F)N[*:1])[*:2]; PyrS2 = (S)-3-amino-1-((pent-4-en-1-yloxy)carbonyl)pyrrolidine-3-carboxylic acid, C=CCCCOC(=O)N1CC[C@@](N[*:1])(C(=O)[*:2])C1; B5(12) = 2-amino-2-(pent-4-en-1-yl)hept-6-enoic acid (two olefin side chains), C=CCCCC(CCCC=C)(N[*:1])C(=O)[*:2]; B5(25) = 2-amino-2-(pent-4-en-1-yl)hept-6-enoic acid (stitching residue), C=CCCCC(CCCC=C)(N[*:1])C(=O)[*:2]; EtGA = (S)-2-amino-3-((carboxymethyl)(ethyl)amino)propanoic acid, CCN(CC(=O)[*:3])C[C@H](N[*:1])C(=O)[*:2]; B5(3) = 2,2-bis(4-pentenyl)glycine (stitching residue), C=CCCCC(CCCC=C)(N[*:1])C(=O)[*:2]; B5 = 2-amino-2-(pent-4-en-1-yl)hept-6-enoic acid, C=CCCCC(CCCC=C)(N[*:1])C(=O)[*:2]; Phe(3-COOH) = N[C@@H](Cc1cccc(C(=O)O)c1)C(=O)O; Phe(2-Cl) = N[C@@H](Cc1ccccc1Cl)C(=O)O; 1Nal = N[C@@H](Cc1cccc2ccccc12)C(=O)O; 2Nal = N[C@@H](Cc1ccc2ccccc2c1)C(=O)O; Bta = N[C@@H](Cc1csc2ccccc12)C(=O)O; αAllylPro = C=CC[C@@]1(C(=O)O)CCCN1; tBuAla = CC(C)(C)C[C@H](N)C(=O)O; 3Thi = N[C@@H](Cc1ccsc1)C(=O)O; Cha = N[C@@H](CC1CCCCC1)C(=O)O; Cit = NC(=O)NCCC[C@H](N)C(=O)O; S8 = C=CCCCCCC[C@](C)(N)C(=O)O; hSer = N[C@@H](CCO)C(=O)O; Dap = NC[C@H](N)C(=O)O

What was measured:
[1] = biological target: full-length beta-Catenin (Uniprot ID P35222) (Homo sapiens (Human)) (UniProt P35222); assay: fluorescence polarization competition; 10 nM full-length beta-catenin with 10 nM 5FAM-TCF4(10-53) probe as competitor
Target sequence in this assay (P35222 2-781 limits assumed): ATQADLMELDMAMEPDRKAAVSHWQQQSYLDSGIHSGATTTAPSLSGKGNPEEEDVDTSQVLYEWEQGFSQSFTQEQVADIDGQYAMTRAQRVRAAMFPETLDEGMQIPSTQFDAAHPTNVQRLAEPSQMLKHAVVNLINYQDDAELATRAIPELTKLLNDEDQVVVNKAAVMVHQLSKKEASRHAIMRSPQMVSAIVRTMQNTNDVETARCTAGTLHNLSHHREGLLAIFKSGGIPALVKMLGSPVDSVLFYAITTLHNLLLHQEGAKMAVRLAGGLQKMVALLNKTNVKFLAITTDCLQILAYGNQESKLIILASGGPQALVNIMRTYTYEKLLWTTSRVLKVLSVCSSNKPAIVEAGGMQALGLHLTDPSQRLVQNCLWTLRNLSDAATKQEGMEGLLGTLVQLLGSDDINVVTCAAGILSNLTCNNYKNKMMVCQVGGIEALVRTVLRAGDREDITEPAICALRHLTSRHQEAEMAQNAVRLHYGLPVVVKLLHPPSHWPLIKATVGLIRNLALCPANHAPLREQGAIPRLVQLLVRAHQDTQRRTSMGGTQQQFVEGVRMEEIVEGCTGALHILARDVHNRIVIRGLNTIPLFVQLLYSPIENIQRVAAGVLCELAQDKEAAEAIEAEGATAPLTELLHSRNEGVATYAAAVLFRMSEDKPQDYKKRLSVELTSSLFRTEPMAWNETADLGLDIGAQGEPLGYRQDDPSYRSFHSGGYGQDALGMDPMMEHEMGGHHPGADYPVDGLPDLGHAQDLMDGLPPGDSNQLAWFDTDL

[2] = biological target: full-length beta-Catenin (Uniprot ID P35222) (Homo sapiens (Human)) (UniProt P35222); assay: fluorescence polarization competition: peptide titrated against 10 nM full-length beta-catenin + 10 nM 5FAM-TCF4(10-53) probe
Target sequence in this assay (P35222 2-781 limits assumed): as above

[3] = biological target: full-length beta-Catenin (Uniprot ID P35222) (Homo sapiens (Human)) (UniProt P35222); assay: fluorescence polarization competition; 10 nM full-length beta-catenin with 10 nM 5FAM-TCF4 (residues 10-53) probe as competitor
Target sequence in this assay (P35222 2-781 limits assumed): as above

[4] = biological target: full-length beta-Catenin (Uniprot ID P35222) (Homo sapiens (Human)) (UniProt P35222); assay: fluorescence polarization competition; displacement of 5FAM-TCF4(10-53) from full-length beta-catenin
Target sequence in this assay (P35222 whole entry, the tested form may be a part): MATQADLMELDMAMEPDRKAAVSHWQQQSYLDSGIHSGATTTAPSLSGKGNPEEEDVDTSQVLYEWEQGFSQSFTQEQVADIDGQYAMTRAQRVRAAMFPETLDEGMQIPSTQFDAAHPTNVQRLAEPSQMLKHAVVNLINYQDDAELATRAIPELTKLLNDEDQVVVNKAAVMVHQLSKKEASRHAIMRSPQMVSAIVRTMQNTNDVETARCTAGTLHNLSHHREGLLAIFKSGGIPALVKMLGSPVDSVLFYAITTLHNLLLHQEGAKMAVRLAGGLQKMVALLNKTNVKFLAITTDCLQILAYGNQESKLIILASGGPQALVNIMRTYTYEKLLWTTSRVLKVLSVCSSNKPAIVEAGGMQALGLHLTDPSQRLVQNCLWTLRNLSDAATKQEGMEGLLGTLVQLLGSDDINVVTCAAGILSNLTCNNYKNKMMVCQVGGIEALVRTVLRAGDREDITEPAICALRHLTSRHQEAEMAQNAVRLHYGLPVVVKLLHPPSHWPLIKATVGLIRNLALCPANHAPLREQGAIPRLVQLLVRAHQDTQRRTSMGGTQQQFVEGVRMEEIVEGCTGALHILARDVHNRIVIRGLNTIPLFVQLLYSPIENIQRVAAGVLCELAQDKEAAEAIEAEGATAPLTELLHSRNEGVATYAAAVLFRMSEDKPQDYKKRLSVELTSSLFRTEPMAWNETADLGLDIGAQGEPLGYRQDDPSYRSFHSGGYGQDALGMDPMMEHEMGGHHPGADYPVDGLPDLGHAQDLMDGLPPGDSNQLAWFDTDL

[5] = biological target: full-length beta-Catenin (Uniprot ID P35222) (Homo sapiens (Human)) (UniProt P35222); assay: fluorescence polarization competition; full-length beta-catenin, competitor probe 5FAM-TCF4(10-53)
Target sequence in this assay (P35222 2-781 limits assumed): as the sequence (P35222 2-781 limits assumed) above

[6] = biological target: full-length beta-Catenin (Uniprot ID P35222) (Homo sapiens (Human)) (UniProt P35222); assay: fluorescence polarization competition; full-length beta-catenin with 5FAM-labeled TCF4 (10-53) probe as competitor
Target sequence in this assay (P35222 whole entry, the tested form may be a part): as the sequence (P35222 whole entry, the tested form may be a part) above

[7] = biological target: full-length beta-Catenin (Uniprot ID P35222) (Homo sapiens (Human)) (UniProt P35222); assay: fluorescence polarization competition; full-length beta-catenin, competitor 5FAM-TCF4 10-53
[8] = biological target: full-length beta-Catenin (Uniprot ID P35222) (Homo sapiens (Human)) (UniProt P35222); assay: fluorescence polarization competition; peptide titrated against 10 nM full-length beta-catenin + 10 nM 5FAM-TCF4(10-53) probe
Target sequence in this assay (P35222 whole entry, the tested form may be a part): as above

[9] = biological target: full-length beta-Catenin (Uniprot ID P35222) (Homo sapiens (Human)) (UniProt P35222); assay: fluorescence polarization competition; displaces 5FAM-TCF4(10-53) from full-length beta-catenin
Target sequence in this assay (P35222 2-781 limits assumed): as the sequence (P35222 2-781 limits assumed) above

[10] = biological target: full-length beta-Catenin (Uniprot ID P35222) (Homo sapiens (Human)) (UniProt P35222); assay: fluorescence polarization competition vs 5FAM-TCF4(10-53) on full-length beta-catenin
Target sequence in this assay (P35222 2-781 limits assumed): as above

IC50 [1]: 19 nM
EC50 [2]: 19 nM
Binder: Ac-[αAllylPro]D[tBuAla][B5]DDAAFN[PyrS2][1Nal][Bta]H-NH2 (staple 1-4, 4-11) [I-794]

EC50 [3]: 7 nM
IC50 [4]: 7 nM
Binder: Ac-[αAllylPro]D[tBuAla][B5(4)]DTAAFN[PyrS2][3Thi][Bta]H-NH2 (staple 1-4, 4-11) [I-845]

IC50 [5]: 59 nM
EC50 [6]: 59 nM
Binder: Ac-[αAllylPro]D[tBuAla][B5(3)]D[TfeGA]AAFF[PyrS2″][Phe(2-Cl)][Bta][hSer]-NH2 (staple 1-4, 4-11) [I-992]

IC50 [5]: 112 nM
EC50 [6]: 112 nM
Binder: Ac-[αAllylPro]D[tBuAla][B5(4)]D[Phe(3-COOH)]AAFS[PyrS2″][3Thi][Bta]Q-NH2 (staple 1-4, 4-11; also: earlier eluting HPLC staple isomer) [I-978]

IC50 [5]: 55 nM
EC50 [6]: 55 nM
Binder: Ac-[αAllylPro]D[tBuAla][B5(3)]D[TfeGA]AAFS[S8][Phe(2-Cl)][Bta]Q-NH2 (staple 1-4, 4-11) [I-995]

IC50 [5]: 87 nM
EC50 [6]: 87 nM
Binder: Ac-[αAllylPro]D[tBuAla][B5(3)]D[TfeGA]AAFF[PyrS2″]Y[Bta]Q-NH2 (staple 1-4, 4-11) [I-989]

IC50 [5]: 51 nM
EC50 [6]: 51 nM
Binder: Ac-[αAllylPro]D[tBuAla][B5(3)]D[TfeGA]AAFF[PyrS2″][Phe(2-Cl)][Bta]T-NH2 (staple 1-4, 4-11) [I-991]

IC50 [7]: 5000 nM
EC50 [8]: 5 µM
Binder: Ac-[αAllylPro]D[Cha][B5(4)]DEAAFN[S8]F[Bta]-NH2 (staple 1-4, 4-11; also: earlier-eluting staple isomer) [I-626]

IC50 [1]: 5 nM
B1: I-1019: Ac-PL3-Asp-Npg-B5-Asp-Asp-Ala-Ala-Phe-Ser-PyrS2-2C1F-BztA-Ser-NH2 (peptide)
peptide: Ac-[αAllylPro]D[tBuAla][B5(16)]DDAAFS[PyrS2″][Phe(2-Cl)][Bta]S-NH2
modifications: staple 1-4, 4-11; not fully specified; printed as Ac-PL3-Asp-Npg-B5-Asp-Asp-Ala-Ala-Phe-Ser-PyrS2-2C1F-BztA-Ser-NH2

IC50 [7]: 5000 nM
EC50 [8]: 5 µM
Binder: Ac-[αAllylPro]DI[B5(4)][Dap](Tf)EAAFQ[S8]F[Bta]Q-NH2 (staple 1-4, 4-11) [I-631]

IC50 [1]: 176 nM
EC50 [2]: 176 nM
Binder: Ac-[αAllylPro]D[tBuAla][B5]DDAAFN[PyrS2][2Nal][Bta]H-NH2 (staple 1-4, 4-11) [I-795]

IC50 [5]: 221 nM
EC50 [6]: 221 nM
Binder: Ac-[αAllylPro]D[tBuAla][B5(4)]D[Phe(3-COOH)]AAFT[PyrS2″][3Thi][Bta]Q-NH2 (staple 1-4, 4-11; also: earlier eluting HPLC staple isomer) [I-980]

IC50 [5]: 118 nM
EC50 [6]: 118 nM
Binder: Ac-[αAllylPro]D[tBuAla][B5(3)]D[Phe(3-COOH)]AAFF[PyrS2″][3Thi][Bta]S-NH2 (staple 1-4, 4-11; also: later eluting HPLC peak (staple isomer)) [I-983]

EC50 [9]: 52 nM
IC50 [7]: 52 nM
Binder: Ac-[αAllylPro]D[tBuAla][B5(5)]DNAAFS[PyrS2″][Phe(2-Cl)][Bta]S-NH2 (staple 1-4, 4-11) [I-1020]

EC50 [3]: 154 nM
IC50 [4]: 154 nM
Binder: Ac-[αAllylPro]D[tBuAla][B5(4)]DYAAFN[PyrS2][3Thi][Bta]H-NH2 (staple 1-4, 4-11) [I-843]

EC50 [3]: 17 nM
IC50 [4]: 17 nM
Binder: Ac-[αAllylPro]D[tBuAla][B5(12)]DNAAFL[PyrS2][3Thi][Bta]Q-NH2 (staple 1-4, 4-11) [I-856]

EC50 [6]: 1710 nM
IC50 [10]: 2240 nM
Binder: Ac-[αAllylPro]D[tBuAla][B5(4)]D[EtGA]AAFS[PyrS2″][3Thi][Bta]S-NH2 (staple 1-4, 4-11; also: later eluting HPLC staple isomer) [I-975]

EC50 [3]: 22 nM
IC50 [4]: 22 nM
Binder: Ac-[αAllylPro]D[tBuAla][B5(12)]DNAAFF[PyrS2][3Thi][Bta]Q-NH2 (staple 1-4, 4-11) [I-855]

IC50 [5]: 179 nM
EC50 [6]: 179 nM
Binder: Ac-[αAllylPro]D[tBuAla][B5(3)]D[Phe(3-COOH)]AAFS[PyrS2″][3Thi][Bta]S-NH2 (staple 1-4, 4-11; also: earlier eluting HPLC peak (staple isomer)) [I-984]

IC50 [5]: 190 nM
EC50 [6]: 190 nM
Binder: Ac-[αAllylPro]D[tBuAla][B5(4)]D[Phe(3-COOH)]AAFF[PyrS2″][3Thi][Bta]S-NH2 (staple 1-4, 4-11; also: earlier eluting HPLC staple isomer) [I-982]

EC50 [6]: 2320 nM
IC50 [10]: 2320 nM
B2: I-969 (peptide)
peptide: Ac-[αAllylPro]D[tBuAla][B5(25)]D[EtGA]AAFT[PyrS2″][3Thi][Bta]Q-NH2
modifications: staple 1-4, 4-11; not fully specified; printed as Ac-PL3-Asp-Npg-B5-Asp-EtGA-Ala-Ala-Phe-Thr-PyrS2-3Thi-BztA-Gln-NH2

IC50 [7]: 338 nM
EC50 [8]: 0.338 µM
Binder: Ac-[αAllylPro]D[Cha][B5(4)]DEAAFN[S8]F[Bta]-NH2 (staple 1-4, 4-11) [I-627]

IC50 [7]: 36 nM
EC50 [8]: 0.685 µM
B3: I-629 (peptide)
peptide: Ac-[αAllylPro]DL[B5(16)]DEAAF[Cit][S8]F[Bta]-NH2
modifications: staple 1-4, 4-11; not fully specified; printed as Ac-PL3-Asp-Leu-B5-Asp-Glu-Ala-Ala-Phe-Cit-S8-Phe-BztA-NH2

IC50 [7]: 5000 nM
EC50 [8]: 5 µM
Binder: Ac-[αAllylPro]DI[B5(4)][Dap](Tf)EAAFQ[S8]F[Bta]Q-NH2 (staple 1-4, 4-11) [I-630]

IC50 [7]: 5000 nM
EC50 [8]: 5 µM
Binder: Ac-[αAllylPro][Dap](Tf)I[B5(4)]DEAAFQ[S8]F[Bta]Q-NH2 (staple 1-4, 4-11) [I-632]

IC50 [5]: 374 nM
EC50 [6]: 199 nM
Binder: Ac-[αAllylPro]D[tBuAla][B5(4)]D[Phe(3-COOH)]AAFT[PyrS2″][3Thi][Bta]Q-NH2 (staple 1-4, 4-11; also: later eluting HPLC staple isomer) [I-981]

EC50 [6]: 1780 nM
IC50 [10]: 1780 nM
Binder: Ac-[αAllylPro]D[tBuAla][B5(4)]D[EtGA]AAFS[PyrS2″][3Thi][Bta]S-NH2 (staple 1-4, 4-11; also: earlier eluting HPLC staple isomer) [I-974]

IC50 [5]: 240 nM
EC50 [6]: 240 nM
Binder: Ac-[αAllylPro]D[tBuAla][B5(4)]D[Phe(3-COOH)]AAFS[PyrS2″][3Thi][Bta]Q-NH2 (staple 1-4, 4-11; also: later eluting HPLC staple isomer) [I-979]

IC50 [7]: 60 nM
EC50 [8]: 0.713 µM
Binder: Ac-[αAllylPro]DL[B5(4)]DEAAF[Cit][S8]F[Bta]-NH2 (staple 1-4, 4-11) [I-628]

IC50 [5]: 430 nM
EC50 [6]: 301 nM
Binder: Ac-[αAllylPro]D[tBuAla][B5(3)]D[Phe(3-COOH)]AAFS[PyrS2″][3Thi][Bta]S-NH2 (staple 1-4, 4-11; also: later eluting HPLC peak (staple isomer)) [I-985]
